Here are results for 125 sequences from the supplement of paper PMC9112550, “Optimization of the antimicrobial peptide Bac7 by deep mutational scanning” (BMC Biology, 2022).

This data set concerns Escherichia coli TOP10. The data set is described as follows: shrunken log2 fold change of peptide-encoding DNA abundance (4.5 h post-induction vs induction); higher = less antimicrobial activity (less host growth inhibition). The note with it: time post-induction: 4.5 h; library: site-saturation at positions 5, 18, 19, 20.
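Further: peptides expressed intracellularly from a pBAD plasmid library in pooled LB shake-flask culture, induced with 0.3% L-arabinose, DNA abundance read by NGS, three biological replicates, DESeq2 with apeglm shrinkage.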

For RRIRLRPPRLPRPRPRPECCPRP, the “shrunken log2 fold change” value came out at 0.338.

As to RRIRLRPPRLPRPRPRPEKAPRP, the “shrunken log2 fold change” value is 0.166.

As to RRIRYRPPRLPRPRPRPNWTPRP, the “shrunken log2 fold change” value is -0.00491.

Turning to RRIRIRPPRLPRPRPRPGKNPRP, the “shrunken log2 fold change” value is -0.597.

RRIRFRPPRLPRPRPRPGMQPRP: the “shrunken log2 fold change” value turned out to be 0.237.

In the case of RRIRVRPPRLPRPRPRPPYAPRP, the “shrunken log2 fold change” value was -0.00506.

With RRIRWRPPRLPRPRPRPLRHPRP, the “shrunken log2 fold change” value was 0.751.

For the sequence RRIRARPPRLPRPRPRPLYVPRP, the “shrunken log2 fold change” value was -0.0921.

RRIRWRPPRLPRPRPRPNSFPRP: the “shrunken log2 fold change” value is -0.0131.

RRIRHRPPRLPRPRPRPWYLPRP: the “shrunken log2 fold change” value was -0.748.

For the sequence RRIRHRPPRLPRPRPRPDDSPRP, the “shrunken log2 fold change” value was -0.01.

In the case of RRIRGRPPRLPRPRPRPTADPRP, the “shrunken log2 fold change” value was determined as 2.65.

With RRIRLRPPRLPRPRPRPSIGPRP, the “shrunken log2 fold change” value is -0.378.

Take RRIRMRPPRLPRPRPRPIIAPRP: the “shrunken log2 fold change” value was determined as 0.0852.

For the sequence RRIRGRPPRLPRPRPRPHMIPRP, the “shrunken log2 fold change” value worked out at 0.0265.

For the sequence RRIRDRPPRLPRPRPRPEGWPRP, the “shrunken log2 fold change” value was 1.78.

For the sequence RRIRYRPPRLPRPRPRPSHAPRP, the “shrunken log2 fold change” value was -0.242.

In the case of RRIRERPPRLPRPRPRPHCLPRP, the “shrunken log2 fold change” value is -0.138.

Turning to RRIRHRPPRLPRPRPRPFKLPRP, the “shrunken log2 fold change” value is -0.196.

On to RRIRIRPPRLPRPRPRPCNNPRP, for which the “shrunken log2 fold change” value is -0.457.

Turning to RRIRGRPPRLPRPRPRPLWKPRP, the “shrunken log2 fold change” value was 0.819.

In the case of RRIRVRPPRLPRPRPRPTARPRP, the “shrunken log2 fold change” value was 0.293.

Take RRIRWRPPRLPRPRPRPSGCPRP: the “shrunken log2 fold change” value was -0.0452.

As for RRIRDRPPRLPRPRPRPCWTPRP, the “shrunken log2 fold change” value came to 0.122.

As to RRIRHRPPRLPRPRPRPDNWPRP, the “shrunken log2 fold change” value was -0.335.

As to RRIRSRPPRLPRPRPRPYLAPRP, the “shrunken log2 fold change” value is -0.251.

Regarding RRIRDRPPRLPRPRPRPMIYPRP, the “shrunken log2 fold change” value is -0.0383.

For RRIRERPPRLPRPRPRPKWVPRP, the “shrunken log2 fold change” value is -0.0367.

On to RRIRSRPPRLPRPRPRPSCVPRP, for which the “shrunken log2 fold change” value was -0.152.

Turning to RRIRARPPRLPRPRPRPMNPPRP, the “shrunken log2 fold change” value was -0.0638.

Turning to RRIRKRPPRLPRPRPRPFGQPRP, the “shrunken log2 fold change” value is 0.783.

For the sequence RRIRHRPPRLPRPRPRPKVCPRP, the “shrunken log2 fold change” value was -0.19.

As to RRIRYRPPRLPRPRPRPYKHPRP, the “shrunken log2 fold change” value is -1.18.

Turning to RRIRGRPPRLPRPRPRPVWYPRP, the “shrunken log2 fold change” value stood at 0.196.

With RRIRARPPRLPRPRPRPSDCPRP, the “shrunken log2 fold change” value is -0.164.

As to RRIRMRPPRLPRPRPRPHGPPRP, the “shrunken log2 fold change” value was found to be 0.752.

On to RRIRERPPRLPRPRPRPYKNPRP, for which the “shrunken log2 fold change” value is -0.756.

With RRIRVRPPRLPRPRPRPVSWPRP, the “shrunken log2 fold change” value stood at 0.469.

On to RRIRQRPPRLPRPRPRPWDVPRP, for which the “shrunken log2 fold change” value is -0.0187.

Regarding RRIRVRPPRLPRPRPRPACTPRP, the “shrunken log2 fold change” value is -0.0478.

Take RRIRIRPPRLPRPRPRPQGIPRP: the “shrunken log2 fold change” value is -0.012.

Regarding RRIRWRPPRLPRPRPRPAYNPRP, the “shrunken log2 fold change” value is -0.389.

For RRIRHRPPRLPRPRPRPWLGPRP, the “shrunken log2 fold change” value was -0.0973.

As to RRIRLRPPRLPRPRPRPKPCPRP, the “shrunken log2 fold change” value is -0.158.

Consider RRIRARPPRLPRPRPRPYCLPRP, for which the “shrunken log2 fold change” value is -0.729.

As to RRIRKRPPRLPRPRPRPYQAPRP, the “shrunken log2 fold change” value came out at 0.134.

As for RRIRPRPPRLPRPRPRPWKQPRP, the “shrunken log2 fold change” value came out at 0.0524.

As to RRIRPRPPRLPRPRPRPWEDPRP, the “shrunken log2 fold change” value stood at 0.00408.

With RRIRWRPPRLPRPRPRPDVVPRP, the “shrunken log2 fold change” value was 0.0719.

In the case of RRIRERPPRLPRPRPRPEFDPRP, the “shrunken log2 fold change” value was found to be 0.039.

As to RRIRNRPPRLPRPRPRPKFMPRP, the “shrunken log2 fold change” value is -0.0904.

With RRIRKRPPRLPRPRPRPILPPRP, the “shrunken log2 fold change” value was found to be 2.29.

Regarding RRIRERPPRLPRPRPRPAVMPRP, the “shrunken log2 fold change” value turned out to be 0.0088.

For RRIRCRPPRLPRPRPRPSILPRP, the “shrunken log2 fold change” value was -0.739.

For RRIRMRPPRLPRPRPRPSRSPRP, the “shrunken log2 fold change” value was found to be 0.902.

As to RRIRCRPPRLPRPRPRPGYNPRP, the “shrunken log2 fold change” value is -0.88.

In the case of RRIRARPPRLPRPRPRPPMVPRP, the “shrunken log2 fold change” value amounted to 0.0322.

Consider RRIRPRPPRLPRPRPRPGQHPRP, for which the “shrunken log2 fold change” value came to 0.0653.

As for RRIRLRPPRLPRPRPRPGNTPRP, the “shrunken log2 fold change” value is -0.242.

Turning to RRIRWRPPRLPRPRPRPHPMPRP, the “shrunken log2 fold change” value amounted to 0.408.

RRIRSRPPRLPRPRPRPGHGPRP: the “shrunken log2 fold change” value was -0.254.

Regarding RRIRDRPPRLPRPRPRPIVDPRP, the “shrunken log2 fold change” value was -0.000946.

RRIRERPPRLPRPRPRPDPHPRP: the “shrunken log2 fold change” value is -0.011.

As to RRIRMRPPRLPRPRPRPHLMPRP, the “shrunken log2 fold change” value was determined as 0.151.

For the sequence RRIRQRPPRLPRPRPRPDPQPRP, the “shrunken log2 fold change” value was -0.159.

In the case of RRIRIRPPRLPRPRPRPRGDPRP, the “shrunken log2 fold change” value was 0.389.

Regarding RRIRIRPPRLPRPRPRPSILPRP, the “shrunken log2 fold change” value was -0.878.

On to RRIRERPPRLPRPRPRPQCSPRP, for which the “shrunken log2 fold change” value was -0.442.

Take RRIRYRPPRLPRPRPRPKYYPRP: the “shrunken log2 fold change” value was -1.43.

In the case of RRIRWRPPRLPRPRPRPAYRPRP, the “shrunken log2 fold change” value was -0.00641.

With RRIRQRPPRLPRPRPRPFWCPRP, the “shrunken log2 fold change” value came out at 0.0825.

For RRIRLRPPRLPRPRPRPNEAPRP, the “shrunken log2 fold change” value turned out to be 0.278.

With RRIRNRPPRLPRPRPRPIACPRP, the “shrunken log2 fold change” value was -0.00434.

Turning to RRIRNRPPRLPRPRPRPQDEPRP, the “shrunken log2 fold change” value turned out to be 0.00847.

Turning to RRIRFRPPRLPRPRPRPHGHPRP, the “shrunken log2 fold change” value was -0.18.

In the case of RRIRGRPPRLPRPRPRPHILPRP, the “shrunken log2 fold change” value was -0.198.

Consider RRIRMRPPRLPRPRPRPTLKPRP, for which the “shrunken log2 fold change” value turned out to be 0.501.

In the case of RRIRFRPPRLPRPRPRPRIAPRP, the “shrunken log2 fold change” value is 0.214.

For the sequence RRIRQRPPRLPRPRPRPIEHPRP, the “shrunken log2 fold change” value worked out at 0.0215.

Turning to RRIRCRPPRLPRPRPRPMWTPRP, the “shrunken log2 fold change” value was -0.0185.

In the case of RRIRRRPPRLPRPRPRPTYCPRP, the “shrunken log2 fold change” value is -0.0567.

As for RRIRIRPPRLPRPRPRPPNPPRP, the “shrunken log2 fold change” value stood at 0.765.

For RRIRPRPPRLPRPRPRPKFYPRP, the “shrunken log2 fold change” value was -0.351.

As for RRIRPRPPRLPRPRPRPHIAPRP, the “shrunken log2 fold change” value was -0.392.

As to RRIRTRPPRLPRPRPRPQGFPRP, the “shrunken log2 fold change” value was determined as 0.0424.

Turning to RRIRFRPPRLPRPRPRPKQEPRP, the “shrunken log2 fold change” value came out at 0.246.

In the case of RRIRHRPPRLPRPRPRPLAMPRP, the “shrunken log2 fold change” value was determined as 0.287.

RRIRSRPPRLPRPRPRPTWNPRP: the “shrunken log2 fold change” value is -0.0149.

Take RRIRCRPPRLPRPRPRPVGEPRP: the “shrunken log2 fold change” value was 0.0624.

As for RRIRHRPPRLPRPRPRPPYPPRP, the “shrunken log2 fold change” value was -0.0246.

On to RRIRWRPPRLPRPRPRPHSIPRP, for which the “shrunken log2 fold change” value was -0.143.

RRIRMRPPRLPRPRPRPQFMPRP: the “shrunken log2 fold change” value was -0.241.

With RRIRYRPPRLPRPRPRPDVGPRP, the “shrunken log2 fold change” value was -0.273.

RRIRIRPPRLPRPRPRPCCQPRP: the “shrunken log2 fold change” value is -0.0291.

In the case of RRIRMRPPRLPRPRPRPDERPRP, the “shrunken log2 fold change” value stood at 1.11.

For the sequence RRIRPRPPRLPRPRPRPAHAPRP, the “shrunken log2 fold change” value is 0.236.

For RRIRMRPPRLPRPRPRPPMFPRP, the “shrunken log2 fold change” value was found to be 0.225.

RRIRVRPPRLPRPRPRPTQRPRP: the “shrunken log2 fold change” value came out at 0.565.

For RRIRTRPPRLPRPRPRPVHNPRP, the “shrunken log2 fold change” value was -0.159.

As for RRIRCRPPRLPRPRPRPPLTPRP, the “shrunken log2 fold change” value is 0.578.

For the sequence RRIRFRPPRLPRPRPRPVTVPRP, the “shrunken log2 fold change” value is -0.264.

For the sequence RRIRMRPPRLPRPRPRPEEYPRP, the “shrunken log2 fold change” value turned out to be 0.0514.

As for RRIRGRPPRLPRPRPRPAKWPRP, the “shrunken log2 fold change” value came to 0.747.

Take RRIRDRPPRLPRPRPRPDGNPRP: the “shrunken log2 fold change” value is -0.00172.

On to RRIRRRPPRLPRPRPRPCFAPRP, for which the “shrunken log2 fold change” value came out at 0.442.

RRIRTRPPRLPRPRPRPYTLPRP: the “shrunken log2 fold change” value is -0.000759.

Take RRIRHRPPRLPRPRPRPDNTPRP: the “shrunken log2 fold change” value is -0.0928.

As for RRIRCRPPRLPRPRPRPTINPRP, the “shrunken log2 fold change” value is -0.783.

Consider RRIRRRPPRLPRPRPRPQKEPRP, for which the “shrunken log2 fold change” value came to 0.00366.

In the case of RRIRYRPPRLPRPRPRPDNHPRP, the “shrunken log2 fold change” value is -0.135.

RRIRARPPRLPRPRPRPLEEPRP: the “shrunken log2 fold change” value was found to be 1.04.

Regarding RRIRYRPPRLPRPRPRPYSEPRP, the “shrunken log2 fold change” value was -0.199.

In the case of RRIRHRPPRLPRPRPRPRCCPRP, the “shrunken log2 fold change” value was -0.079.

For RRIRDRPPRLPRPRPRPVNEPRP, the “shrunken log2 fold change” value was 0.0314.

As to RRIRKRPPRLPRPRPRPQGIPRP, the “shrunken log2 fold change” value came to 0.114.

Consider RRIRYRPPRLPRPRPRPANRPRP, for which the “shrunken log2 fold change” value is 0.0126.

Turning to RRIRYRPPRLPRPRPRPSIKPRP, the “shrunken log2 fold change” value was -0.952.

For RRIRIRPPRLPRPRPRPIFLPRP, the “shrunken log2 fold change” value was -0.416.

In the case of RRIRLRPPRLPRPRPRPSVNPRP, the “shrunken log2 fold change” value was -0.822.

For the sequence RRIRDRPPRLPRPRPRPLWPPRP, the “shrunken log2 fold change” value came to 0.662.

Regarding RRIRYRPPRLPRPRPRPHKMPRP, the “shrunken log2 fold change” value was -0.153.

RRIRRRPPRLPRPRPRPMMHPRP: the “shrunken log2 fold change” value was determined as 0.101.

For RRIRGRPPRLPRPRPRPEEGPRP, the “shrunken log2 fold change” value is 0.0303.

Take RRIRQRPPRLPRPRPRPRHLPRP: the “shrunken log2 fold change” value was -0.33.

Consider RRIRPRPPRLPRPRPRPSGNPRP, for which the “shrunken log2 fold change” value is -0.273.
